Experimental data taken from US20260217800A1.

Molecular target: full length gp41 HIV protein (Abcam) (human immunodeficiency virus-1 (HIV-1))
Assay: titration ELISA, wells coated with 1 µg/mL antigen, 2F5 in 4-fold dilutions from 30 µg/mL

“2F5 broadly neutralizing human monoclonal antibody” gave an EC50 (read off the curve) of 0.1 µg/mL.
